Legend:
CA09 virus [1] = test: Bio-Plex inflammatory cytokines in lung homogenates after CA09 challenge; assay type: in vivo, BALB/c mice; conditions: 6.0 mg/kg IN 24 hrs before or after CA09; day 2 p.i.; P≦0.00119
Description: The concentrations of cytokines in lung tissue were measured. On days 2 and 4 post-infection, 8 mice per group were sacrificed and whole lung tissue was collected and immediately frozen. Lungs were thawed, weighed and lysed using the Bio-Plex® Cell Lysis Kit (Bio-Rad, Hercules, Calif.). The levels of interleukin (IL)-6, IL-10. IL-12(p70), interferon (IFN)-γ, and tumor necrosis factor (TNF)-α in the lysate were measured using a Bio-Plex) multiplex bead array kit (Bio-Rad, Hercules, Calif.). The Bio-Plex® assay was performed in accordance with the manufacturer's instructions.

H5 HA = assay type: binding, Influenza virus
[2] = mouse, in vivo
CA09 virus [3] = test: Post-exposure (therapeutic) administration after CA09 challenge in BALB/c mice; assay type: in vivo; conditions: for protection from lethality: 10 MLD50 CA09
Description: All animal experiments used in this study were approved by the University of Washington Institutional Animal Care and Use Committee. […] […] In a therapeutic setting, mice received the protein binder 0 (2 hours post-infection), 1, 2, 3, or 4 days post infection. The mice were monitored daily for weight loss and survival until 14 days post-infection. Animals that lost more than 30% of their initial body weight were euthanized in accordance with our animal protocol. The SCID (NOD SCID gamma, strain NOD.Cg-Prkdcscid Il2rgtm1Wjl/SzJ) mice and the MyD88−/−(strain B6.129P2(SJL)-Myd88tm1.1Defr/J) mice were purchased from Jackson Laboratory.

CA09 virus [4] = test: Pre-exposure administration and CA09 challenge in SCID mice; assay type: in vivo, NOD SCID gamma (SCID) mice; conditions: 6.0 mg/kg IN 2 hrs before CA09
Description: (§1) All animal experiments used in this study were approved by the University of Washington Institutional Animal Care and Use Committee. […] Two to forty-eight hours later, the mice were anesthetized by isoflurane and challenged intranasally with 10 MLD50 (fifty percent mouse lethal dose) of either A/California/07/09 (H1N1) (CA09) or A/PR/8/34 (H1N1) (PR8). In a therapeutic setting, mice received the protein binder 0 (2 hours post-infection), 1, 2, 3, or 4 days post infection. The mice were monitored daily for weight loss and survival until 14 days post-infection. Animals that lost more than 30% of their initial body weight were euthanized in accordance with our animal protocol. The SCID (NOD SCID gamma, strain NOD.Cg-Prkdcscid Il2rgtm1Wjl/SzJ) mice and the MyD88−/−(strain B6.129P2(SJL)-Myd88tm1.1Defr/J) mice were purchased from Jackson Laboratory.

[5] = target: Hemagglutinin (HA) of pandemic 2009 California H1N1 (Influenza A virus, UniProt C3W5S1)
[6] = system: Group I Hemagglutinin (HA) subtypes; assay type: binding, Influenza virus
[7] = system: human (H1N1) and avian (H5N1) influenza viruses; test: microbe, parasite or virus in culture; assay type: cell-based, Influenza virus
[8] = system: A/California/07/2009 (CA09) influenza virus; design: species or system ferrets; conditions: in vivo
CA09 virus [9] = test: Lung immunohistochemistry for influenza nucleoprotein (NP) after CA09 challenge; assay type: in vivo, BALB/c mice
Description: During in vivo challenge experiments, lungs were removed from mice and immersed in 10% neutral buffered formalin. Following fixation, tissues were removed from formalin and placed in paraffin. Immunohistochemical staining was performed on the Leica Bond Automated Immunostainer. Sections were deparaffinized in Leica Bond Dewax Solution (Leica Cat No. AR922) and rehydrated through 100% EtOH. After antigen retrieval with EDTA buffer pH 9.0 (Lieca Bond Epitope Retrieval Solution 2, Cat No AR9640) at 100° C. for 20 minutes and blocking endogenous peroxidase activity with 3.0% H2O2 for 5 minutes and blocking with 10% Normal Donkey Serum in TBS for 20 minutes the sections were incubated with Goat anti Influenza A Virus, (Meridian Life Science Inc. Cat No. B65141G) at 1:2000 or Normal Goat IgG, isotype control. (Invitrogen Cat No. 02-6202) at (1:5000 dilution) both in Bond Primary Antibody Diluent (Leica Cat No. AR9352) for 30 minutes at room temperature. Sections were then incubated with Rabbit anti Goat IgG (Jackson ImmunoResearch Cat. No. 305-005-045) 1:1500+5% Normal Donkey Serum for 8 minutes at RT followed by incubation with Goat anti Rabbit Poly-HRP polymer secondary detection (Leica Cat No DS9800) for 8 minutes at room temperature. Sections were then incubated with Leica Bond Mixed Refine DAB substrate detection for 10 minutes at room temperature. (Leica Cat No DS9800). […]

CA09 virus [10] = system: CA09 virus; design: species or system BALB/c mice; conditions: mouse, in vivo
H2 HA = assay type: binding, Influenza virus
[11] = Bio-Plex inflammatory cytokines in lung homogenates after protein administration (no infection); assay type: in vivo, BALB/c mice; conditions: single IN dose 6.0 mg/kg
Description: The concentrations of cytokines in lung tissue were measured. […] Lungs were thawed, weighed and lysed using the Bio-Plex® Cell Lysis Kit (Bio-Rad, Hercules, Calif.). The levels of interleukin (IL)-6, IL-10. IL-12(p70), interferon (IFN)-γ, and tumor necrosis factor (TNF)-α in the lysate were measured using a Bio-Plex) multiplex bead array kit (Bio-Rad, Hercules, Calif.). The Bio-Plex® assay was performed in accordance with the manufacturer's instructions.

CA09 virus [12] = test: Pre-exposure administration and CA09 challenge in MyD88-/- mice; assay type: in vivo; conditions: 6.0 mg/kg IN 2 hrs before CA09
Description: as §1

B1: HB36.6: HA stem binding protein, variant of HB36.5 with nine substitutions (SEQ ID NO: 3); FLAG-tagged in the studies (protein)
chain: SNAMDGQQLNRLLLENIGAWDPFGLGKDAYTYQAAEVLKAVYETNRAFDLAMRIHWIYNFAFKRRIPFARTQKLARRLLELKQAASSPLP
modifications: FLAG tag; (1)..(5) optionally absent; (86)..(90) optionally absent
notes: FLAG-tagged in the studies
inflammatory cytokine response in lung (IL-6, IL-10, IL-12p70, TNF-α, IFN-γ) (CA09 virus [1]): several cytokines were significantly lower than in the controls
affinity increase over HB36.5 (H5 HA): > 10 fold
detection of protein in lung tissue [2]: readily detected throughout the lung tissue
protection from lethality (CA09 virus [3]; 3.0 mg/kg IN daily for 4 days (days +1-4 p.i.)): 100%
protection from lethality (CA09 virus [3]; single IN dose 3.0 mg/kg 2 hours p.i.): 100%
protection from lethality (CA09 virus [3]; single IN dose 3.0 mg/kg +1 day p.i.): 60%
rate of survival (CA09 virus [3]; single IN dose 10 mg/kg on day +1 p.i., 3 MLD50 CA09): 70%
effect of a single dose on survivors (CA09 virus [3]; single IN dose 1.0-10 mg/kg on day +1 p.i., CA09, dose-responsive): increase in the number of survivors
survival (protected mice) (CA09 virus [4]): 100%
weight loss (CA09 virus [4]): minimal weight loss
Kd stronger than HB36.5 [5]: roughly 6 fold
Kd tighter than any known de novo binder [5]: 5 fold
Kd ([5]; read-out: Kd against pandemic 2009 California H1N1): 3.1 nM
affinity compared with HB36.5 [6]: higher affinity than HB36.5
cross-reactivity against Group I HA subtypes [6]: broadly cross-reactive
off-rates (dissociation) [6]: did not show well-defined off-rates
50% effective concentration (EC50) range [7]: 0.18 to 12.0 µg/mL
protection against influenza challenge in ferrets [8]: affords prophylactic protection
viral replication in the lungs vs untreated controls (CA09 virus [9]; 6.0 mg/kg IN 1 day before or post-infection, day 2 and day 4 p.i.): significantly less viral replication
NP positive (infected) cells in lung tissue vs controls (CA09 virus [9]; 6.0 mg/kg IN as therapeutic, day 4, P≦0.0263): significantly lower number of infected cells
reduction in mean viral titers in nasal washes vs untreated controls (CA09 virus [10]): 1-3 log-fold
affinity increase over HB36.5 (H2 HA): greater than 40 fold
cytokine levels by 48 hrs [11]: dropped to pre-administration levels
cytokine levels compared with 1u84 [11]: significantly lower than levels induced by 1u84
survival (protected mice) (CA09 virus [12]): 90%
weight loss (CA09 virus [12]): minimal weight loss
